# Measured values as given in US10052364B2, “Osteocalcin as a treatment for cognitive disorders” (THE TRUSTEES OF COLUMBIA UNIVERSITY IN THE CITY OF NEW YORK, priority 2013, dated 2018).
# B1: uncarboxylated osteocalcin: Recombinant osteocalcin bacterially produced, cleaved from the GST subunit; completely undercarboxylated at all three sites (protein, listed as Homo sapiens)
# chain: MRALTLLALLALAALCIAGQAGAKPSGAESSKGAAFVSKQEGSEVVKRPRRYLYQWLGAPVPYPDPLEPRREVCELNPDCDELADHIGFQEAYRRFYGPV
# modifications: uncarboxylated
# notes: Recombinant osteocalcin bacterially produced, cleaved from the GST subunit; completely undercarboxylated at all three sites
# Columns and labels:
# [1] = Acute stereotactic injection into the hippocampus, pCREB and PKA immunofluorescence; assay type: in vivo, mouse; settings: 10 ng into hippocampus, 16 h post injection
# Description: (§1) FIG. 10. Osteocalcin administration results in CREB phosphorylation. (A) p-CREB immunofluorescence (IF) in the dentate gyms (DG) of WT and Ocn−/− hippocampal region. (B) p-CREB IF in WT brain sections following a dual stereotactic injection of vehicle (PBS) (on the left) or Ocn (10 ng) (on the right) in the hippocampus. The arrows point toward the DG. (C) PKA IF in WT brain sections following a dual stereotactic injection of vehicle (PBS) (on the right) or Ocn (10 ng) (on the left) in the hippocampus.
# (§2) The resulting effects on animal behavior of direct recombinant uncarboxylated osteocalcin delivery raise the question of the molecular mechanism of action of osteocalcin in the brain. Given that osteocalcin acts through a G-protein coupled receptor pathway in other tissues, e.g., pancreas and testis, the phosphorylated CREB levels in the hippocampi of Ocn−/− and WT animals was checked. […] The hippocampus is essential for optimal spatial learning and memory in rodents. It was then asked whether the acute stereotactic injection of 10 ng of recombinant uncarboxylated osteocalcin directly into the hippocampus of WT animals would affect pCREB levels. At 16 h post injection, pCREB staining was increased in the hemisphere injected with osteocalcin versus the one injected with PBS in the same animal (FIG. 10B).
# [2] = system: CREB phosphorylation in the hippocampus; experiment: as above; assay type: in vivo, mouse; settings: 10 ng into hippocampus of WT animals, 16 h post injection
# Description: as §1, §2
# [3] = system: brainstem neurons, neurons of the locus coeruleus, GABAergic interneurons of the hindbrain; experiment: Electrophysiology, whole cell current clamp recording in brain slices; assay type: cell-based, mouse
# Description: Brain slice preparations and electrophysiological recordings were performed according to methods known in the art. Briefly, WT mice were anesthetized with ether and then decapitated. The brains were rapidly removed and immersed in an oxygenated bath solution at […] containing (in mM): sucrose 220, KCl 2.5, CaCl2 1, MgCl2 6, NaH2PO4 1.25, NaHCO3 26, and glucose 10 pH 7.3 with NaOH. Coronal slices (350 μm thick) containing dorsal raphe (DR) were cut on a vibratome and maintained in a holding chamber with artificial cerebrospinal fluid (ACSF) (bubbled with 5% CO2 and 95% O2) containing (in mM): NaCl 124, KCl 3, CaCl2 2, MgCl2 2, NaH2PO4 1.23, NaHCO3 26, glucose 10, pH 7.4 with NaOH, and were transferred to a recording chamber constantly perfused with bath solution (330 C) at 2 ml/min after at least a 1 hr recovery. Whole-cell current clamp was performed to observe action potentials in DR serotoninergic (5-HT) neurons with a Multiclamp 700A amplifier (Axon instrument, CA). Patch pipettes with a tip resistance of 4-6 MS2 were made of borosilicate glass (World Precision Instruments) with a Sutter pipette puller (P-97) and filled with a pipette solution containing (in mM): K-gluconate (or Cs-gluconate) 135, MgCl2 2, HEPES 10, EGTA 1.1, Mg-ATP 2, Na2-phosphocreatine 10, and Na2-GTP 0.3, pH 7.3 with KOH. After a giga-Ohm (GΩ) seal and whole-cell access were achieved, the series resistance (between 20 and 40 MΩ) was partially compensated by the amplifier. […] Electrophysiological data were analyzed with Axograph 4.9 and plotted with Igor Pro software (WaveMetrics, Lake Oswego, Oreg.).
# To determine if osteocalcin acts directly on neurons to modulate neurotransmitter synthesis, several types of assays were performed. […] Third, to further confirm that osteocalcin signals in neurons of the hindbrain, calcium flux in MPHN treated with undercarboxylated or carboxylated osteocalcin (FIG. 3F) was measured. […]
molecule,measurement,setting,value
B1,PKA staining in the injected hemisphere,[1],widespread and dramatic increase
same,pCREB staining in injected hemisphere versus PBS hemisphere,[2],increased
same,action potential frequency of the GABAergic interneurons of the hindbrain,[3],inhibits
same,action potential frequency in neurons of the locus coeruleus,[3]; whole cell current clamp,decreases
same,action potential frequency of brainstem neurons,[3]; whole cell current clamp,activates
